The binders below were run against T1, Recombinant purified FcRH5 Ig-8 domain (UniProt Q96RD9 743-850, limits assumed) (assay: SPR, Biacore 8k, VHH-mIgG2a Fc captured by anti-mouse kit on CM5, FcRH5 Ig8 as analyte (500 nM, 2-fold dilutions), 1:1 Langmuir fit, 25 C).
T1 construct: domain: Ig8
T1 sequence (looked up): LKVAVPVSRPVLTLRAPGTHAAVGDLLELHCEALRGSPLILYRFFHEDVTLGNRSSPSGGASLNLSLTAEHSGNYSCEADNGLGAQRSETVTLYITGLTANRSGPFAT
Procedure: Recombinant anti-FcRH5 antibodies in mouse IgG2a format were captured on flow cell 2 on a Series S CM5 chip (GE Healthcare), functionalised with anti-mouse capture kit according to manufacturer's recommendations (GE Healthcare). Antibodies were captured to a density of 160 RU using a Biacore 8k instrument. HBS-P+ buffer was used as running buffer in all experimental conditions. Recombinant purified FcRH5 Ig-8 domain at known concentrations (500 nM with 2-fold serial dilutions) used as the ‘analyte’ and injected over the respective flow cells with 150s contact time and 500s dissociation at 30 μl/minute of flow rate with a constant temperature of 25° C. In each experiment, flow cell 1 was unmodified and used for reference subtraction. A ‘0 concentration’ sensogram of buffer alone was used as a double reference subtraction to factor for drift. Data were fit to a 1:1 Langmuir binding model. Since a capture system was used, a local maximal analytical response (Rmax) parameter was used for the data fitting in each case.

Binder | Kd | koff | kon
Anti-FcRH5 VHH-Fc AU60370 (AbVec.aFcRH5.dAb-MIgG2a-Fc.Clone.B04) (Fc fusion, not shown: murine IgG2a Fc domain) QVQLQESGGGSVQPGGSLSLSCAASGFTFSNYAMSWVRQAPGKGPEWVAVINSDGGTASSAGSVRGRFTISRDNAKNTLYLQMNRLKPEDTAVYYCAANRGFCAGVRCLEYQYWGQGTQVTVS | 3.64 nM | 0.00028 s⁻¹ | 76800 M⁻¹ s⁻¹
Anti-FcRH5 VHH-Fc AU60462 (AbVec.aFcRH5.dAb-MIgG2a-Fc.Clone.E04) (Fc fusion, VHH fused to murine IgG2a Fc; not shown: murine IgG2a Fc domain) QVQLQESGGGLVQAGGSLRLSCTASGRTSSRAAMGWFRQAPGKEREFVAVISWSGGTTAYANSVKGRFTISRDNAKNTLYLQMNSLKPEDTAVYYCAAARIFTTARNDYDHWGQGTQVTVS | 5.8 nM | 0.000293 s⁻¹ | 50500 M⁻¹ s⁻¹
Anti-FcRH5 VHH-Fc AU60470 (AbVec.aFcRH5.dAb-MIgG2a-Fc.Clone.F11) (Fc fusion, not shown: murine IgG2a Fc domain) QVQLQESGGGLVQAEGSLRLSCAASGRTFSMYAMGWFRQAPGREREFVAAISGSARITYYGQSVKGRFTISRDNAKNTVYLQMNSLKPEDTAVYYCAASSTYTSTSGSSYNYWGQGTQVTVS | 0.255 nM | 1.81e-05 s⁻¹ | 70800 M⁻¹ s⁻¹
Anti-FcRH5 VHH-Fc AU60369 (AbVec.aFcRH5.dAb-MIgG2a-Fc.Clone.B03) (Fc fusion, VHH fused to murine IgG2a Fc, expi-CHO, Protein A purified; not shown: murine IgG2a Fc domain) QVQLQESGGGLVQAGGSLRLSCAASRSSFSNNAMGWYRQVPGKQRELVAFITKGGVTDYSDSVKGRFTISKDNAKNTVYLQMNSLKPEDTAVYYCNTIPFRSAWGQGTQVTVS | 4.77 nM | 0.00246 s⁻¹ | 516000 M⁻¹ s⁻¹
Anti-FcRH5 VHH-Fc AU60385 (AbVec.aFcRH5.dAb-MIgG2a-Fc.Clone.B07 as printed in Table 3; Clone B11 in Table 9) (Fc fusion, not shown: murine IgG2a Fc domain) QVQLQESGGGLVQAGGSLRLSCAASGRTFSTYAMAWFRQAPGKEREFVAAISGFGVVTYYADSVKGRFTISRDNAKNTLYLQMNGLKPEDTAVYYCAAGRRTSTNGGDYDYWGQGTQVTVS | 6.56 nM | 0.000348 s⁻¹ | 53100 M⁻¹ s⁻¹
Anti-FcRH5 VHH-Fc AU60382 (AbVec.aFcRH5.dAb-MIgG2a-Fc.Clone.B07) (Fc fusion, not shown: murine IgG2a Fc domain) QVQLQESGGGLVQAGGSLIVSCAASGRTFSINAMAWFRQAPGKEREFVAAIGGSGRVSSTSYADFVKGRFTISRDNAKNTVYLRMNNLEPEDTAVYYCAARRDYLPFPPESYDYWGQGTQVTVA | 4.34 nM | 0.000515 s⁻¹ | 119000 M⁻¹ s⁻¹
Anti-FcRH5 VHH-Fc AU60463 (AbVec.aFcRH5.dAb-MIgG2a-Fc.Clone.E07) (Fc fusion, not shown: murine IgG2a Fc domain) QVQLQESGGGLVQAGDSLRLSCAYSGRTFSSYAMGWFRQAPGKERVFVAAISRIGGVTTYAESVQGRFTISRDNAKNTLYLQMNALKPEDTAVYYCAAAGLVSISTTPNDYDYWGQGTQVTVS | 2.99 nM | 0.000161 s⁻¹ | 53800 M⁻¹ s⁻¹
Anti-FcRH5 VHH-Fc AU60460 (AbVec.aFcRH5.dAb-MIgG2a-Fc.Clone.C10) (Fc fusion, VHH fused to murine IgG2a Fc; not shown: murine IgG2a Fc domain) QVQLQESGGGLVQAGGSLRLSCAASGRTYNNYAMGWFRQAPGKEREFVAGISRSGGMTGYAESVKGRFTISRDNAKNMVFLQMNSLKPEDTAVYYCAAYVGGFSTARRDYSYWGQGTQVTVS | 0.669 nM | 3.4e-05 s⁻¹ | 50800 M⁻¹ s⁻¹
Anti-FcRH5 VHH-Fc AU60471 (AbVec.aFcRH5.dAb-MIgG2a-Fc.Clone.F12) (Fc fusion, VHH fused to murine IgG2a Fc; not shown: murine IgG2a Fc domain) QVQLQESGGGLVQAGGSLRLSCAASGSIFSINAMGWYRQAPGKQRELVAFITSGGSTNYADSVKGRFTISRDNAKNTVYLQMNSLKPEDTAVYYCNALGGFVPSYGWGQGTQVTVS | 0.757 nM | 0.00025 s⁻¹ | 330000 M⁻¹ s⁻¹
Anti-FcRH5 VHH-Fc AU60465 (AbVec.aFcRH5.dAb-MIgG2a-Fc.Clone.E12) (Fc fusion, not shown: murine IgG2a Fc domain) QVQLQESGGGLVQAGGSLRLSCVVSRNIFSLNPMGWYRQAPGKQREMVAIITDGGSTNYADSVKGRFTISRDNVKNTVYLQMNALEPEDTAVYYCNRVGGLQTWAWGQGTQVTVSS | 4.54 nM | 0.00306 s⁻¹ | 673000 M⁻¹ s⁻¹
Anti-FcRH5 VHH-Fc AU60464 (AbVec.aFcRH5.dAb-MIgG2a-Fc.Clone.E11) (Fc fusion, not shown: murine IgG2a Fc domain) QVQLQQSGGGLVQPGGSLRLSCAAPGNIFRLNGTGWYRQAPGKQRELVAHITSGGNTDYADSVKGRFTISRDNAKNTVYLQMNSLKPEDTAVYYCNAIPFRLSWGQGTQVTVS | 4.84 nM | 0.00289 s⁻¹ | 596000 M⁻¹ s⁻¹
Anti-FcRH5 VHH-Fc AU60466 (AbVec.aFcRH5.dAb-MIgG2a-Fc.Clone.F01) (Fc fusion, not shown: murine IgG2a Fc domain) QVQLQQSGGGLVQAGGSLSLSCTASGRSFSNYGMGWFRQAPGKEREFVAAIGMVGGLTAYSNSAKGRFTISRDNAKNTLYLQMNSLKPEDTAVYLCAAGRRFSTSSRDYDIWGQGTQVTVS | 3.14 nM | 0.000469 s⁻¹ | 150000 M⁻¹ s⁻¹
